From publication PMC9712689 (Communications Biology, 2022)

Key:
Conditions in all cases: both partners purified
PBP1a [1] = biological target: T1, PBP1a (P. aeruginosa PAO1, UniProt Q07806 27-822); assay: ITC
SltB1 = biological target: T2, SltB1 (P. aeruginosa PAO1, UniProt Q9HX24 1-340); assay: ITC
T2 sequence (looked up): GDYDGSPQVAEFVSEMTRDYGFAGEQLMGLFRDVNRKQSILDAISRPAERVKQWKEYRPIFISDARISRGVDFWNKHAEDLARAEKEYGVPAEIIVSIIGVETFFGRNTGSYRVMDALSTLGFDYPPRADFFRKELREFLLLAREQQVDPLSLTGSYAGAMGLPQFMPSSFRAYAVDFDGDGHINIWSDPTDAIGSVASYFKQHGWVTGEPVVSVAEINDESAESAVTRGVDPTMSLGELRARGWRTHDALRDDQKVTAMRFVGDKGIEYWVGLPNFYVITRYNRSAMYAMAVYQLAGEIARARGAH

PilA = biological target: T3, PilA (P. aeruginosa PAO1, UniProt P04739); assay: ITC
T3 construct: source: E. coli, purified (Ni-NTA or Strep-Tactin)
T3 sequence: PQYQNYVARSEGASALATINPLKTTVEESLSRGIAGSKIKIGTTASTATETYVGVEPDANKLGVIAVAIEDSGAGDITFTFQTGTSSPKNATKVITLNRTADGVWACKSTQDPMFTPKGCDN

PA2854 = biological target: T4, PA2854 (P. aeruginosa PAO1, UniProt Q9HZZ0); assay: SPR
T4 construct: source: E. coli, purified (Ni-NTA or Strep-Tactin)
T4 sequence: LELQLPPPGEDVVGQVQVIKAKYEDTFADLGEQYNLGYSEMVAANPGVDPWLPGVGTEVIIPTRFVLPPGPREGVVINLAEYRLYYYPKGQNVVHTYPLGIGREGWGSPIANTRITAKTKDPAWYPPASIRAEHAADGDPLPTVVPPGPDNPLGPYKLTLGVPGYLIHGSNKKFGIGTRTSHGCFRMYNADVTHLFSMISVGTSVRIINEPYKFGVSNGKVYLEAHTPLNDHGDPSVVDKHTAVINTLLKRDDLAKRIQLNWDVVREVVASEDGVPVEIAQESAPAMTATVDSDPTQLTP

PilO = biological target: T5, PilO (P. aeruginosa PAO1, UniProt G3XD51); assay: SPR
T5 construct: source: E. coli, purified (Ni-NTA or Strep-Tactin)
T5 sequence: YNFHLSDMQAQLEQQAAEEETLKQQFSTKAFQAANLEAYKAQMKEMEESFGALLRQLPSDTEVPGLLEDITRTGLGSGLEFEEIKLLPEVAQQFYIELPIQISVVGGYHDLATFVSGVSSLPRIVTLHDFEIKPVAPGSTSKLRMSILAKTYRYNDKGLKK

PBP1a [2] = biological target: T1, PBP1a; assay: SPR; RlpA-Δ81 or RlpA-SPOR amine-coupled to its own CM4 chip, partner as analyte; 25 °C; 10 mM HEPES pH 7.4, 150 mM NaCl, 3 mM EDTA, 0.005% P20; alternate fitting model for PBP1a on RlpA-SPOR
MltD [3] = biological target: T6, MltD (P. aeruginosa PAO1, UniProt Q9I2T2 1-534); assay: as above
T6 sequence (looked up): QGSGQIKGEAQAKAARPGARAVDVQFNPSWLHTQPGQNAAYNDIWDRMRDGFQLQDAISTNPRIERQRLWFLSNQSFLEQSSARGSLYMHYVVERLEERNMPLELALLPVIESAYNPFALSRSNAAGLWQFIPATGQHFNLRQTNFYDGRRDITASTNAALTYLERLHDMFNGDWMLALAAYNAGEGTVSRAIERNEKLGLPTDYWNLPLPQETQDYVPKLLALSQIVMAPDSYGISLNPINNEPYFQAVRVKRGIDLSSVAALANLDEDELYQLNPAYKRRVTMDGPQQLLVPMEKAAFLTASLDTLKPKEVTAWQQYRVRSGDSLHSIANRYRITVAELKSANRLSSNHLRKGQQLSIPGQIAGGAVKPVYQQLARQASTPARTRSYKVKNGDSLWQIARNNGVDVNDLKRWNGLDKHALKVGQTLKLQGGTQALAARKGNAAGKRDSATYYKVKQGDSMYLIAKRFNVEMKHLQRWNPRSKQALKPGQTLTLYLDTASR

TypA [4] = biological target: T7, TypA (P. aeruginosa PAO1, UniProt Q9HU67 1-605); assay: as above
T7 sequence (looked up): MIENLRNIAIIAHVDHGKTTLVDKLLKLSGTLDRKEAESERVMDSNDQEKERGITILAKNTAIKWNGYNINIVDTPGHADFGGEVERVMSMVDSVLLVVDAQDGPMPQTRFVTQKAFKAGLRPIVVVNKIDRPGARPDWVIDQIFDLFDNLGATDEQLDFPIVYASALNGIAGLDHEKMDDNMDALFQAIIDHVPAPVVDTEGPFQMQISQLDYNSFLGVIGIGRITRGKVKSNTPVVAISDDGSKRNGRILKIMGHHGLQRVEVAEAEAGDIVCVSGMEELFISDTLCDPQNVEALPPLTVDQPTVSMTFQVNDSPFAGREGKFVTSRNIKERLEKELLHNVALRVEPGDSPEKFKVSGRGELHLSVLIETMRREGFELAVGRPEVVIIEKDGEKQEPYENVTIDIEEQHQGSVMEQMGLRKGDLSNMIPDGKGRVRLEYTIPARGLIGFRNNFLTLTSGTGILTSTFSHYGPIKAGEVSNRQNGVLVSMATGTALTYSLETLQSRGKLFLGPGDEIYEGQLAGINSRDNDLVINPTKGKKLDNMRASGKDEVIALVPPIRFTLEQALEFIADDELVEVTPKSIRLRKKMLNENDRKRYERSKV

MltF2 [5] = biological target: T8, MltF2 (P. aeruginosa PAO1, UniProt Q9HZY1 1-476); assay: as above
T8 sequence (looked up): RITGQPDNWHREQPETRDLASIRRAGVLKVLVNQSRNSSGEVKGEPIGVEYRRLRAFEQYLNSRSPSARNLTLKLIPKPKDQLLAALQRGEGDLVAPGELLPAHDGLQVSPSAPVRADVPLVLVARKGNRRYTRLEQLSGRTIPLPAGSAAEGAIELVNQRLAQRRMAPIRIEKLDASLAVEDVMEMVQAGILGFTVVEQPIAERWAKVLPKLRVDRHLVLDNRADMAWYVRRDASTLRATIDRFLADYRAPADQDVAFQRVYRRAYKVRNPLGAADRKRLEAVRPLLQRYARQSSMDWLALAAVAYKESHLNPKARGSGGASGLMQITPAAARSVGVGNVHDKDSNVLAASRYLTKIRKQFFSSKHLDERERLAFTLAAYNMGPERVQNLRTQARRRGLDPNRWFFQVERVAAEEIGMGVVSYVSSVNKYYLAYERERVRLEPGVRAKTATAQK

PBP1a [6] = biological target: T1, PBP1a; assay: SPR
MltB = biological target: T9, MltB (P. aeruginosa PAO1, UniProt Q9HVX3 1-367); assay: SPR
T9 sequence (looked up): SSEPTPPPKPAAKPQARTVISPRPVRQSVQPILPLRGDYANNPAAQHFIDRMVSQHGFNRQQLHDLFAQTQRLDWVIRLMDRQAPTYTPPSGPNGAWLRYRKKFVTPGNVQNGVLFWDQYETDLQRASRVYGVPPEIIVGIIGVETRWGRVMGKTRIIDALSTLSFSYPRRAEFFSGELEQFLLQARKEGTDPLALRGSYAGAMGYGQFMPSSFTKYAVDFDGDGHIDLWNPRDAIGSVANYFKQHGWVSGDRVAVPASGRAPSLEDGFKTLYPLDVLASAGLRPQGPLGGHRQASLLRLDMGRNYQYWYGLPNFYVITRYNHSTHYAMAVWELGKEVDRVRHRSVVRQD

MltF = MltF (P. aeruginosa PAO1, UniProt Q9HXN1 33-490); assay: SPR
MltF, sequence (Q9HXN1 33-490): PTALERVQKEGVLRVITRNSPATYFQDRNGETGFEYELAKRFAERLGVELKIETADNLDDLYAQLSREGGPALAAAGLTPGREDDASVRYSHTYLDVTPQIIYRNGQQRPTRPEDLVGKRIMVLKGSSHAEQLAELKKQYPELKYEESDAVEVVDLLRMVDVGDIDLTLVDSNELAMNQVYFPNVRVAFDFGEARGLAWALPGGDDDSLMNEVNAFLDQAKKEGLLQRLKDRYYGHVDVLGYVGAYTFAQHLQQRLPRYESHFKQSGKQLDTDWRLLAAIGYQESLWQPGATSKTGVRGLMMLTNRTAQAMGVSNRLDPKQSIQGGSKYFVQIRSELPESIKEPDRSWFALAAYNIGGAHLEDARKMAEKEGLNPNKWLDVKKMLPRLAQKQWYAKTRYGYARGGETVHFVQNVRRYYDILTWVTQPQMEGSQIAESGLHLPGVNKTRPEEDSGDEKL

SltB2 = biological target: T10, SltB2 (P. aeruginosa PAO1, UniProt Q9I4G6 1-398); assay: SPR
T10 sequence (looked up): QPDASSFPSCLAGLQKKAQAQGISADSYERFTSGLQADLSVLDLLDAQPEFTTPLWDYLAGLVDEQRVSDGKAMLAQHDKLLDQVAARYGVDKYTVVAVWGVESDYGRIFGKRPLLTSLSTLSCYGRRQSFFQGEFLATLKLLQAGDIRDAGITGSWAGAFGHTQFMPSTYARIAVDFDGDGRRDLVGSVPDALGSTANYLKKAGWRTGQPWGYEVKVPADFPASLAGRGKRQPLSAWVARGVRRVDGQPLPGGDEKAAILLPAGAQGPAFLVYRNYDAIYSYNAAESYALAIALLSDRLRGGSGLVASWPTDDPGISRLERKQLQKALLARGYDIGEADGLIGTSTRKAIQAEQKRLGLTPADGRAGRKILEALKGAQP

MltD [7] = biological target: T6, MltD; assay: SPR
PBP4 = biological target: T11, PBP4 (P. aeruginosa PAO1, UniProt Q9HZG1 1-476); assay: SPR
T11 sequence (looked up): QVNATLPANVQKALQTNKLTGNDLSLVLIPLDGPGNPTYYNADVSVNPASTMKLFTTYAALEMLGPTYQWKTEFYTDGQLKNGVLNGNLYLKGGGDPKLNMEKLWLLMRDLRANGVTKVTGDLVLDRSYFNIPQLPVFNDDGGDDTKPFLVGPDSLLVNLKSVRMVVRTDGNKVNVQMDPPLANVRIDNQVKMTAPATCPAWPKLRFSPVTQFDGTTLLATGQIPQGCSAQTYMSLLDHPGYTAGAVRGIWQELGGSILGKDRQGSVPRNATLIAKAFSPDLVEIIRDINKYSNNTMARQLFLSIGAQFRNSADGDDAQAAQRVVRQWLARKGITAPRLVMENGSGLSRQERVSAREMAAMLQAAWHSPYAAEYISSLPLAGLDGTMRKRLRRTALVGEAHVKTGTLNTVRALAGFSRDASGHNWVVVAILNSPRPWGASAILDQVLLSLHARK

TypA [8] = biological target: T7, TypA; assay: SPR
MltF2 [9] = biological target: T8, MltF2; assay: SPR

T1 sequence (Q07806 27-822): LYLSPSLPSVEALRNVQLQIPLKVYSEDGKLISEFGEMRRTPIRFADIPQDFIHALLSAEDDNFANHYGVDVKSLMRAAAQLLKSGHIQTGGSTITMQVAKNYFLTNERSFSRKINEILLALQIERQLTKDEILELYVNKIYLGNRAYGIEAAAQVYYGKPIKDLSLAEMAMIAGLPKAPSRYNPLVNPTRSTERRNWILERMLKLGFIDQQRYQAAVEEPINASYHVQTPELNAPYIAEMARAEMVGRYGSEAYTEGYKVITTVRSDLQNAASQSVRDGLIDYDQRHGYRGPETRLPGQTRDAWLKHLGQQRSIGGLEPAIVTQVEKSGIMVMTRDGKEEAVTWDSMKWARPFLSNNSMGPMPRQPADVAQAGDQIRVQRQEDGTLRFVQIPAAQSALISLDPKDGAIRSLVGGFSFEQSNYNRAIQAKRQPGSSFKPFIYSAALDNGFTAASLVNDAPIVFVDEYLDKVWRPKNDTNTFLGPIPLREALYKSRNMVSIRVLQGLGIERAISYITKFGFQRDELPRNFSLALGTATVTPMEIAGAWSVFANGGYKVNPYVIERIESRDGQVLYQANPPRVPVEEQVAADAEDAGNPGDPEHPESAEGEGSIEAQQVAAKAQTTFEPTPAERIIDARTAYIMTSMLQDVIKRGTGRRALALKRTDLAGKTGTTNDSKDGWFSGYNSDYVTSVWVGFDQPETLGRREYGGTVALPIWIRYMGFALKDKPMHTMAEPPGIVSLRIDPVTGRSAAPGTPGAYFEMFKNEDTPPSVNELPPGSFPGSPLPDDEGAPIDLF

B1: RlpA-SPOR (domain or fragment, P. aeruginosa PAO1, UniProt Q9X6V6 264-342, looked up)
chain: ADGLYLQVGAFANPDAAELLKAKLSGVTAAPVFISSVVRNQQILHRVRLGPIGSADEVSRTQDSIRVANLGQPTLVRPD
PBP1a [1]
  Kd: 104 nM
  stoichiometry N: 0.26
SltB1
  Kd: 9800 nM
PilA
  Kd: 73 nM
  stoichiometry N: 1
PA2854
  Kd: 1410 nM
  koff: 0.00038 s⁻¹
  kon: 270 M⁻¹ s⁻¹
PilO
  Kd: 5760 nM
  koff: 0.00438 s⁻¹
  kon: 760 M⁻¹ s⁻¹
PBP1a [2]
  Kd: 190 nM
  koff: 0.00049 s⁻¹
  kon: 2600 M⁻¹ s⁻¹
MltD [3]
  Kd: 200 nM
  koff: 0.0027 s⁻¹
  kon: 13800 M⁻¹ s⁻¹
TypA [4]
  Kd: 4250 nM
  koff: 0.00034 s⁻¹
  kon: 80 M⁻¹ s⁻¹
MltF2 [5]
  Kd: 98 nM
  koff: 0.00077 s⁻¹
  kon: 7900 M⁻¹ s⁻¹

B2: RlpA-Δ32 (domain or fragment)
chain: PQQPARQAGISGPGDYSRPHRDGAPWWDVDVSRIPDAVPMPHNGSVKANPYTVLGKTYYPMNDARAYRMVGTASWYGTKFHGQATANGETYDLYGMTAAHKTLPLPSYVRVTNLDNGKSVIVRVNDRGPFYSDRVIDLSFAAAKKLGYAETGTARVKVEGIDPVQWWAQRGRPAPMVLAQPKQAVAQAAPAAAQTQAVAMAQPIETYTPPPAQHAAAVLPVQIDSKKNASLPADGLYLQVGAFANPDAAELLKAKLSGVTAAPVFISSVVRNQQILHRVRLGPIGSADEVSRTQDSIRVANLGQPTLVRPD
notes: source: E. coli BL21-star (DE3), purified (Ni-NTA)
PBP1a [6]
  Kd: 340 nM
  koff: 0.00144 s⁻¹
  kon: 4200 M⁻¹ s⁻¹
MltB
  Kd: 620 nM
  koff: 0.00079 s⁻¹
  kon: 1270 M⁻¹ s⁻¹
MltF
  kon: 500 M⁻¹ s⁻¹
SltB2
  Kd: 1040 nM
  koff: 0.0005 s⁻¹
  kon: 480 M⁻¹ s⁻¹
MltD [7]
  Kd: 430 nM
  koff: 0.00116 s⁻¹
  kon: 2700 M⁻¹ s⁻¹
PBP4
  Kd: 130 nM
  koff: 0.00086 s⁻¹
  kon: 6700 M⁻¹ s⁻¹
TypA [8]
  Kd: 2020 nM
  koff: 0.00077 s⁻¹
  kon: 380 M⁻¹ s⁻¹
MltF2 [9]
  Kd: 6 nM
  koff: 0.00028 s⁻¹
  kon: 44000 M⁻¹ s⁻¹
